Data on 1 molecule can be found in article PMC8097376 (EMBO Reports, 2021).

The term Kd denotes the constant that tells how readily two partners part at equilibrium. A higher Kd goes with weaker binding. Broadly, the IC50 is the point on the concentration scale where inhibition reaches its midpoint.

In assay [1] the target is T1, SARS-CoV-2 spike receptor-binding domain (RBD) (SARS-CoV-2, UniProt P0DTC2, biotinylated for BLI (site not stated); covalently coupled to MagPlex beads by EDC/sNHS in the bead assays). Nature of the assay: BLI. The settings on record: both partners purified.
Assay [2] deals with T1, SARS-CoV-2 spike receptor-binding …. Nature of the assay: bead-based multiplex ACE2 competi. The settings on record: both partners purified.

B1: nanobody NM1226 (VHH)
VHH: QVQLVESGGGSVQPGGSLRLSCLGSGSLDYYAIGWFRQAPGKEREGVSCIASSGDRTIYADSVKGRFTISRDYGKNTVYLQMNSLKPEDTAMYYCAALQGSYYYTGFVANEYDYWGQGAPVTVSS
In assay [1], B1 registered a Kd of 3.66 nM. The molecule also displayed an IC50 in assay [2] of 0.82 nM.
